The target of assay [1] is T1, murine ACC-α (acetyl-Coenzyme-A carboxylase, α form), endogenous protein of murine cell lysates (murine, UniProt Q5SWU9 1-2345). Description: GST co-sedimentation, Western blot with streptavidin-peroxidase. How it is done: (§1) The proteins for fusion with GST were synthesised in Escherichia coli, strain JM 109 (Promega) transformed with pGEX-4T-1, pGEX-BRCT, pGEX-BRCT A, pGEX-BRCT B, pGEX-BRCT L, pGEX-BRCT M or pGEX-BRCTh as well as the mutated forms of BRCTh (A1708E, P1749R, M1775R, R1835X and Y1853X). They were purified by affinity chromatography on Glutathione-Sepharose. The test of binding by co-sedimentation was carried out in vitro by incubating cellular lysates in the presence of non-recombinant GST proteins or GST fusion proteins and Glutathione-Sepharose beads. 10 μg of GST or fusion GST were used in each binding test. The protein complexes were carefully washed (50 mM Tris HCl pH 7.6, 100 mM KCl, 0.05% Tween 20, 1 mM DTT, 0.2 mM PMSF) to eliminate the non-specific protein interactions and released by heating at 100° C. in loading buffer 5× SDS-PAGE and 100 mM DTT. The proteins were analysed by SDS-PAGE and visualised by autoradiography, staining with silver (Bio-Rad SilverStain) or staining with Coomassie blue according to the nature of the lysate used
In order to map the domain of interaction of ACC-α on the BRCT tandem of Brca1, co-sedimentation tests with six distinct fusion proteins were carried out. The protein complexes of co-sedimentation were resolved by SDS-PAGE and visualised by Western Blot. The ACC protein containing the biotin was detected using peroxidase coupled with streptavidin, and as streptavidin has a high affinity for biotin it is therefore a very sensitive probe for detecting ACC-α (Witters, L. A. et al, 1994). […] However, the fragment GST-BRCT A which lacks the sequences of the domain B of BRCT is incapable of combining with ACC-α.

Assay [2] addresses T1, murine ACC-α (acetyl-Coenzyme-A …). Description: GST co-sedimentation with the mutated tandem. How it is done: as §1
Numerous familial mutations have been found in the carboxy-terminal segment of BRCA1. One of these, R1835X, localised in the distal domain of BRCT, introduces a non-sense codon which suppresses the last 29 amino acids of Brca1 and thus breaks the second BRCT domain. […]

The target is the same in assay [3]. Description: GST co-sedimentation on NIH3T3 lysate.
Assay [4] has the same target. Description: GST co-sedimentation in a lysate of murine fibroblasts.
From the text: The inventors have shown that the tandem of the two BRCT domains was necessary and sufficient for the formation of this complex. Moreover, the inventors have shown that the formation of this complex was conserved in the human cells, using a GST-human BRCT fusion protein in co-sedimentation experiments similar to those cited above.
as §1

We go through seven molecules from patent publication US20060105403A1 (published 2006).

B1: GST-BRCT A (GST fusion with the first BRCT module of murine Brca1 alone) (other)
chain: TSSEERADRDISMVVSGLTPKEVMTVQKFAEKYRLTLTDAITEETTHVIIKTDAEFVCERTLKYFLGIAGGKWIVSYSWVVRSIQERRLLNVHEFEVKGDVVTGRNHQGPRRSRESREKLFKG
notes: It uses the same forward primer as GST-BRCT, so it probably starts at residue 1583; also called BRCT A module alone; pGEX-BRCT A product; not shown: GST carrier and vector linker of pGEX-4T-1 at the N end
On to B1, for which the binding result in assay [1] is given as “no binding (tested: 10 µg of fusion GST per binding test)”.

B2: GST-BRCT B (GST fusion with the second BRCT module of murine Brca1 alone) (other)
chain: REKLFKGLQVYCCEPFTNMPKDELERMLQLCGASVVKELPSLTHDTGAHLVVIVQPSAWTEDSNCPDIGQLCKARLVMWDWVLDSLSSYRCRGLDAYLVQNITCDSSEPQDSND
notes: also called BRCT B module alone; pGEX-BRCT B product; not shown: GST carrier and vector linker of pGEX-4T-1 at the N end
For B2, the binding result in assay [1] is recorded as “no binding (tested: 10 µg of fusion GST per binding test)”.

B3: GST-Brca1 N (GST fusion containing the 220 N-terminal residues of murine Brca1) (other)
chain: MDLSAVQIQEVQNVLHAMQKILECPICLELIKEPVSTKCDHIFCKFCMLKLLNQKKGPSQCPLCKNEITKRSLQGSTRFSQLAEELLRIMAAFELDTGMQLTNGFSFSKKRNNSCERLNEEASIIQSVGYRNRVRRLPQVEPGNATLKDSLGVQLSNLGIVRSVKKNRQTQPRKKSVYIELDSDSSEETVTKPGDCSVRDQELLQTAPQEAGDEGKLHSA
notes: also called GST fusion protein expressing the 220 amino-terminal residues of the murine Brca1 protein; not shown: glutathione S-transferase (GST); the vector for this construct is not described
With B3, the binding result in assay [1] was “no binding (tested: 10 µg of fusion GST per binding test)”.

B4: GST-BRCT M (GST-BRCT of murine Brca1 with the non-sense mutation W1777X) (other)
chain: TSSEERADRDISMVVSGLTPKEVMTVQKFAEKYRLTLTDAITEETTHVIIKTDAEFVCERTLKYFLGIAGGKWIVSYSWVVRSIQERRLLNVHEFEVKGDVVTGRNHQGPRRSRESREKLFKGLQVYCCEPFTNMPKDELERMLQLCGASVVKELPSLTHDTGAHLVVIVQPSAWTEDSNCPDIGQLCKARLVM
notes: also called mutated tandem; pGEX-BRCT M product; not shown: GST carrier and vector linker of pGEX-4T-1 at the N end
With B4, the binding result in assay [2] is recorded as “no binding (tested: 10 µg of fusion GST per binding test)”.

B5: GST-BRCT L (GST fusion containing residues 1512-1812 of murine Brca1) (other)
chain: EGTPYLGSGISLFSSRDPESESPKEPAHIGTTPASTSALKIPQGQVAFRSAAAAGADKAVVGIVSKIKPELTSSEERADRDISMVVSGLTPKEVMTVQKFAEKYRLTLTDAITEETTHVIIKTDAEFVCERTLKYFLGIAGGKWIVSYSWVVRSIQERRLLNVHEFEVKGDVVTGRNHQGPRRSRESREKLFKGLQVYCCEPFTNMPKDELERMLQLCGASVVKELPSLTHDTGAHLVVIVQPSAWTEDSNCPDIGQLCKARLVMWDWVLDSLSSYRCRGLDAYLVQNITCDSSEPQDSND
notes: also called longer form of the murine BRCT domain; pGEX-BRCT L product; not shown: glutathione S-transferase (GST) encoded by pGEX-4T-1
Regarding B5, the binding result in assay [1] is listed as “binds”.

B6: GST-BRCTh (GST fusion with the human form of the BRCT tandem of BRCA1) (other)
chain: TASTERVNKRMSMVVSGLTPEEFMLVYKFARKHHITLTNLITEETTHVVMKTDAEFVCERTLKYFLGIAGGKWVVSYFWVTQSIKERKMLNEHDFEVRGDVVNGRNHQGPKRARESQDRKIFRGLEICCYGPFTNMPTDQLEWMVQLCGASVVKELSSFTLGTGVHPIVVVQPDAWTEDNGFHAIGQMCEAPVVTREWVLDSVALYQCQELDTYLIPQIPHSHY
notes: also called GST-human BRCT fusion protein; human BRCT tandem; not shown: glutathione S-transferase (GST) encoded by the pGEX vector
For B6, the binding result in assay [3] was “binds”.

B7: GST-BRCT (GST fusion protein containing amino acids 1583 to 1812 of murine Brca1) (other)
chain: TSSEERADRDISMVVSGLTPKEVMTVQKFAEKYRLTLTDAITEETTHVIIKTDAEFVCERTLKYFLGIAGGKWIVSYSWVVRSIQERRLLNVHEFEVKGDVVTGRNHQGPRRSRESREKLFKGLQVYCCEPFTNMPKDELERMLQLCGASVVKELPSLTHDTGAHLVVIVQPSAWTEDSNCPDIGQLCKARLVMWDWVLDSLSSYRCRGLDAYLVQNITCDSSEPQDSND
notes: Made in E. coli and held on glutathione-Sepharose beads; also called murine BRCT tandem; BRCT tandem of Brca1; not shown: glutathione S-transferase (GST) encoded by pGEX-4T-1 (Amersham Pharmacia Biotech)
Consider B7, for which, in assay [4], the binding result was “binds”.
